Data as given in paper PMC12416549 (2024).

Biological target: T1, TNFR1 (Homo sapiens, UniProt P19438)
T1 chain: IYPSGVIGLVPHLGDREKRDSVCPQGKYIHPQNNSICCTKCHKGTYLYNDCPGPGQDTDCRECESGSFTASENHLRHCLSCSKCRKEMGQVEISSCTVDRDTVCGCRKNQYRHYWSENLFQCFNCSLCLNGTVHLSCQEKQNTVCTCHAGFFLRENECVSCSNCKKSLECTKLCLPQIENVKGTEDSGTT
Assay: yeast display SC50

| Binder | apparent Kd (screen) [nM] |
| --- | --- |
| R97C (designed binder) MTLQELLREEALRRAEAEAFRYALELLAEKFPEQKEYLLDLAEEIESQIRSLSGVDVEDVRKFLDKEWAWVKELLAEHPAELAEVEAARAARLAELCAEVEAKVAA | 1.05 |
| E9H (designed binder) MTLQELLRHEALRRAEAEAFRYALELLAEKFPEQKEYLLDLAEEIESQIRSLSGVDVEDVRKFLDKEWAWVKELLAEHPAELAEVEAARAARLAELRAEVEAKVAA | 0.593 |
| A23L (designed binder) MTLQELLREEALRRAEAEAFRYLLELLAEKFPEQKEYLLDLAEEIESQIRSLSGVDVEDVRKFLDKEWAWVKELLAEHPAELAEVEAARAARLAELRAEVEAKVAA | 0.593 |
| P32S (designed binder) MTLQELLREEALRRAEAEAFRYALELLAEKFSEQKEYLLDLAEEIESQIRSLSGVDVEDVRKFLDKEWAWVKELLAEHPAELAEVEAARAARLAELRAEVEAKVAA | 0.49 |
| E81D (designed binder) MTLQELLREEALRRAEAEAFRYALELLAEKFPEQKEYLLDLAEEIESQIRSLSGVDVEDVRKFLDKEWAWVKELLAEHPADLAEVEAARAARLAELRAEVEAKVAA | 0.718 |
| K103R (designed binder) MTLQELLREEALRRAEAEAFRYALELLAEKFPEQKEYLLDLAEEIESQIRSLSGVDVEDVRKFLDKEWAWVKELLAEHPAELAEVEAARAARLAELRAEVEARVAA | 0.446 |
| A76M (designed binder) MTLQELLREEALRRAEAEAFRYALELLAEKFPEQKEYLLDLAEEIESQIRSLSGVDVEDVRKFLDKEWAWVKELLMEHPAELAEVEAARAARLAELRAEVEAKVAA | 0.869 |
| D40N (designed binder) MTLQELLREEALRRAEAEAFRYALELLAEKFPEQKEYLLNLAEEIESQIRSLSGVDVEDVRKFLDKEWAWVKELLAEHPAELAEVEAARAARLAELRAEVEAKVAA | 2.48 |
| E95A (designed binder) MTLQELLREEALRRAEAEAFRYALELLAEKFPEQKEYLLDLAEEIESQIRSLSGVDVEDVRKFLDKEWAWVKELLAEHPAELAEVEAARAARLAALRAEVEAKVAA | 0.593 |
| K66D (designed binder) MTLQELLREEALRRAEAEAFRYALELLAEKFPEQKEYLLDLAEEIESQIRSLSGVDVEDVRKFLDDEWAWVKELLAEHPAELAEVEAARAARLAELRAEVEAKVAA | 0.49 |
| P79Q (designed binder) MTLQELLREEALRRAEAEAFRYALELLAEKFPEQKEYLLDLAEEIESQIRSLSGVDVEDVRKFLDKEWAWVKELLAEHQAELAEVEAARAARLAELRAEVEAKVAA | 0.593 |
| A105H (designed binder) MTLQELLREEALRRAEAEAFRYALELLAEKFPEQKEYLLDLAEEIESQIRSLSGVDVEDVRKFLDKEWAWVKELLAEHPAELAEVEAARAARLAELRAEVEAKVHA | 0.49 |
| K103C (designed binder) MTLQELLREEALRRAEAEAFRYALELLAEKFPEQKEYLLDLAEEIESQIRSLSGVDVEDVRKFLDKEWAWVKELLAEHPAELAEVEAARAARLAELRAEVEACVAA | 0.539 |
| E86L (designed binder) MTLQELLREEALRRAEAEAFRYALELLAEKFPEQKEYLLDLAEEIESQIRSLSGVDVEDVRKFLDKEWAWVKELLAEHPAELAEVLAARAARLAELRAEVEAKVAA | 3 |
| R92K (designed binder) MTLQELLREEALRRAEAEAFRYALELLAEKFPEQKEYLLDLAEEIESQIRSLSGVDVEDVRKFLDKEWAWVKELLAEHPAELAEVEAARAAKLAELRAEVEAKVAA | 0.593 |
| L96K (designed binder) MTLQELLREEALRRAEAEAFRYALELLAEKFPEQKEYLLDLAEEIESQIRSLSGVDVEDVRKFLDKEWAWVKELLAEHPAELAEVEAARAARLAEKRAEVEAKVAA | 0.49 |
| V57P (designed binder) MTLQELLREEALRRAEAEAFRYALELLAEKFPEQKEYLLDLAEEIESQIRSLSGVDPEDVRKFLDKEWAWVKELLAEHPAELAEVEAARAARLAELRAEVEAKVAA | 1.54 |
| Q4A (designed binder) MTLAELLREEALRRAEAEAFRYALELLAEKFPEQKEYLLDLAEEIESQIRSLSGVDVEDVRKFLDKEWAWVKELLAEHPAELAEVEAARAARLAELRAEVEAKVAA | 0.718 |
| A28K (designed binder) MTLQELLREEALRRAEAEAFRYALELLKEKFPEQKEYLLDLAEEIESQIRSLSGVDVEDVRKFLDKEWAWVKELLAEHPAELAEVEAARAARLAELRAEVEAKVAA | 10.4 |
| D59W (designed binder) MTLQELLREEALRRAEAEAFRYALELLAEKFPEQKEYLLDLAEEIESQIRSLSGVDVEWVRKFLDKEWAWVKELLAEHPAELAEVEAARAARLAELRAEVEAKVAA | 1.05 |
| Q4I (designed binder) MTLIELLREEALRRAEAEAFRYALELLAEKFPEQKEYLLDLAEEIESQIRSLSGVDVEDVRKFLDKEWAWVKELLAEHPAELAEVEAARAARLAELRAEVEAKVAA | 0.446 |
| L75W (designed binder) MTLQELLREEALRRAEAEAFRYALELLAEKFPEQKEYLLDLAEEIESQIRSLSGVDVEDVRKFLDKEWAWVKELWAEHPAELAEVEAARAARLAELRAEVEAKVAA | 1.16 |
| A87L (designed binder) MTLQELLREEALRRAEAEAFRYALELLAEKFPEQKEYLLDLAEEIESQIRSLSGVDVEDVRKFLDKEWAWVKELLAEHPAELAEVELARAARLAELRAEVEAKVAA | 0.653 |
| Q4V (designed binder) MTLVELLREEALRRAEAEAFRYALELLAEKFPEQKEYLLDLAEEIESQIRSLSGVDVEDVRKFLDKEWAWVKELLAEHPAELAEVEAARAARLAELRAEVEAKVAA | 0.49 |
| S53E (designed binder) MTLQELLREEALRRAEAEAFRYALELLAEKFPEQKEYLLDLAEEIESQIRSLEGVDVEDVRKFLDKEWAWVKELLAEHPAELAEVEAARAARLAELRAEVEAKVAA | 2.25 |
| K66G (designed binder) MTLQELLREEALRRAEAEAFRYALELLAEKFPEQKEYLLDLAEEIESQIRSLSGVDVEDVRKFLDGEWAWVKELLAEHPAELAEVEAARAARLAELRAEVEAKVAA | 0.539 |
